Reference: IntAct's records for PubMed 34927784

B1: Endosomal transmembrane epsin interactor 1 (Homo sapiens), Q15884 (parent)
chain: MILLVNLFVLLSVVCVLLNLAGFILGCQGAQFVSSVPRCDLVDLGEGKICFCCEEFQPAKCTDKENALKLFPVQPCSAVHLLLKKVLFALCALNALTTTVCLVAAALRYLQIFATRRSCIDESQISAEEAEDHGRIPDPDDFVPPVPPPSYFATFYSCTPRMNRRMVGPDVIPLPHIYGARIKGVEVFCPLDPPPPYEAVVSQMDQEQGSSFQMSEGSEAAVIPLDLGCTQVTQDGDIPNIPAEENASTSTPSSTLVRPIRSRRALPPLRTRSKSDPVLHPSEERAAPVLSCEAATQTERRLDLAAVTLRRGLRSRASRCRPRSLIDYKSYMDTKLLVARFLEQSSCTMTPDIHELVENIKSVLKSDEEHMEEAITSASFLEQIMAPLQPSTSRAHKLPSRRQPGLLHLQSCGDLHTFTPAGRPRAERRPRRVEAERPHSLIGVIRETVL

Legend:
ITCH, Q96J02-2 [1] = variants of: B1; settings: with ITCH
Sequence of ITCH, Q96J02-2 (Q96J02 other isoform, or with tags, fused parts or gaps): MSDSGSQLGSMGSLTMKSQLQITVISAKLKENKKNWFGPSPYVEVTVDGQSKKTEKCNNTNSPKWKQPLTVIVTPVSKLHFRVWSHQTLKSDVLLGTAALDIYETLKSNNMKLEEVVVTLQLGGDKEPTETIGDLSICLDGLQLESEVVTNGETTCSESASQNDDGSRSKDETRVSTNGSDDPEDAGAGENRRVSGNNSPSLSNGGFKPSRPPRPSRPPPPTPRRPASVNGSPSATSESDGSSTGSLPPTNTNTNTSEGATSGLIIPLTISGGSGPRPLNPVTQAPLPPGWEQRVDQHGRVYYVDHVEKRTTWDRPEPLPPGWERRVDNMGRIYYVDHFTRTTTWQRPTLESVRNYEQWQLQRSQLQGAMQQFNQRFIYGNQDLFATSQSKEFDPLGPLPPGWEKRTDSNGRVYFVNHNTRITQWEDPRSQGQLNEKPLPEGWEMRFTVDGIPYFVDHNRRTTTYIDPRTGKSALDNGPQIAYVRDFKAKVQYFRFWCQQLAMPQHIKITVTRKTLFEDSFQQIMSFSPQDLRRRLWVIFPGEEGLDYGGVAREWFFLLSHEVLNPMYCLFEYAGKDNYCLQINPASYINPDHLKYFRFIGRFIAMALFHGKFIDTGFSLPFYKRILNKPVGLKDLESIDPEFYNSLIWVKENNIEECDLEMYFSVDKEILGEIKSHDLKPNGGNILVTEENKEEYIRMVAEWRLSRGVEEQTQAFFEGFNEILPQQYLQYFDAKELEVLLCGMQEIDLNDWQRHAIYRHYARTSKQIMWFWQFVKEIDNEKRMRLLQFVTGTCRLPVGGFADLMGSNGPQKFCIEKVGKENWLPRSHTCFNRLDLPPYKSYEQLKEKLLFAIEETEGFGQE

epn1_human EPN1, Q9Y6I3 = variants of: B1; settings: with epn1_human EPN1, Q9Y6I3
Sequence of epn1_human EPN1, Q9Y6I3 (Q9Y6I3 whole entry): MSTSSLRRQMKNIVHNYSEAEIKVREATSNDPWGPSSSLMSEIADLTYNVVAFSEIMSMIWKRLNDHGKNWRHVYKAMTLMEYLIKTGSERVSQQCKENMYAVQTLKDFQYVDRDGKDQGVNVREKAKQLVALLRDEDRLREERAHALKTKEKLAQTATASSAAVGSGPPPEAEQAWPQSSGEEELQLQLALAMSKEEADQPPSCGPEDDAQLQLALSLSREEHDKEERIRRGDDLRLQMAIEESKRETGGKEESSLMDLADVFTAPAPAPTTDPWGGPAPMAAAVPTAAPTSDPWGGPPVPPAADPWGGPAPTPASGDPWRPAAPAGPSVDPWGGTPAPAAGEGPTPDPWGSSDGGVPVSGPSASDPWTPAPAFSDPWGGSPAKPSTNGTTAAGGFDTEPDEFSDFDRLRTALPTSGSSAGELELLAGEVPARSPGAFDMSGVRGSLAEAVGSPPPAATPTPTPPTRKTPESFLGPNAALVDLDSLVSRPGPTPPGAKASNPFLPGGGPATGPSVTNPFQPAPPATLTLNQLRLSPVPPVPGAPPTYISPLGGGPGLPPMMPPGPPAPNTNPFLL

ITCH, Q96J02-2 [2] = variants of: B1; settings: with ITCH; remark: listed apart in the source
ITCH, Q96J02-2 [3] = variants of: B1; settings: with ITCH; remark: listed apart in the source

Row | effect of a mutation on the interaction (ITCH, Q96J02-2 [1]) | effect of a mutation on the interaction (epn1_human EPN1, Q9Y6I3) | effect of a mutation on the interaction (ITCH, Q96J02-2 [2]) | effect of a mutation on the interaction (ITCH, Q96J02-2 [3]) | Variant
1 | with no effect |  |  |  | MILLVNLFVLLSVVCVLLNLAGFILGCQGAQFVSSVPRCDLVDLGEGKICFCCEEFQPAKCTDKENALKLFPVQPCSAVHLLLKKVLFALCALNALTTTVCLVAAALRYLQIFATRRSCIDESQISAEEAEDHGRIPDPDDFVPPVPPPSAFATFYSCTPRMNRRMVGPDVIPLPHIYGARIKGVEVFCPLDPPPPYEAVVSQMDQEQGSSFQMSEGSEAAVIPLDLGCTQVTQDGDIPNIPAEENASTSTPSSTLVRPIRSRRALPPLRTRSKSDPVLHPSEERAAPVLSCEAATQTERRLDLAAVTLRRGLRSRASRCRPRSLIDYKSYMDTKLLVARFLEQSSCTMTPDIHELVENIKSVLKSDEEHMEEAITSASFLEQIMAPLQPSTSRAHKLPSRRQPGLLHLQSCGDLHTFTPAGRPRAERRPRRVEAERPHSLIGVIRETVL [Y151A]
2 | decreasing interaction strength |  |  |  | MILLVNLFVLLSVVCVLLNLAGFILGCQGAQFVSSVPRCDLVDLGEGKICFCCEEFQPAKCTDKENALKLFPVQPCSAVHLLLKKVLFALCALNALTTTVCLVAAALRYLQIFATRRSCIDESQISAEEAEDHGRIPDPDDFVPPVPPPSYFATFYSCTPRMNRRMVGPDVIPLPHIYGARIKGVEVFCPLDPPPPAEAVVSQMDQEQGSSFQMSEGSEAAVIPLDLGCTQVTQDGDIPNIPAEENASTSTPSSTLVRPIRSRRALPPLRTRSKSDPVLHPSEERAAPVLSCEAATQTERRLDLAAVTLRRGLRSRASRCRPRSLIDYKSYMDTKLLVARFLEQSSCTMTPDIHELVENIKSVLKSDEEHMEEAITSASFLEQIMAPLQPSTSRAHKLPSRRQPGLLHLQSCGDLHTFTPAGRPRAERRPRRVEAERPHSLIGVIRETVL [Y197A]
3 | decreasing interaction strength | with no effect | with no effect | disrupting interaction strength | MILLVNLFVLLSVVCVLLNLAGFILGCQGAQFVSSVPRCDLVDLGEGKICFCCEEFQPAKCTDKENALKLFPVQPCSAVHLLLKKVLFALCALNALTTTVCLVAAALRYLQIFATRRSCIDESQISAEEAEDHGRIPDPDDFVPPVPPPSAFATFYSCTPRMNRRMVGPDVIPLPHIYGARIKGVEVFCPLDPPPPAEAVVSQMDQEQGSSFQMSEGSEAAVIPLDLGCTQVTQDGDIPNIPAEENASTSTPSSTLVRPIRSRRALPPLRTRSKSDPVLHPSEERAAPVLSCEAATQTERRLDLAAVTLRRGLRSRASRCRPRSLIDYKSYMDTKLLVARFLEQSSCTMTPDIHELVENIKSVLKSDEEHMEEAITSASFLEQIMAPLQPSTSRAHKLPSRRQPGLLHLQSCGDLHTFTPAGRPRAERRPRRVEAERPHSLIGVIRETVL [Y151A;Y197A]
